Measured values reported in patent US20190142963A1 (INDIANA UNIVERSITY RESEARCH AND TECHNOLOGY, published 2019).
Read-outs that look alike come from different tables or passages of the source. Each block holds one molecule with its values, some of them ahead of it. Non-standard residues stand in square brackets, D forms with d. No end group written: not given here.

What was measured:
Experiment in all cases: cell-based or functional assay
human Klotho β [1] = target: T1, human Klotho β (human, UniProt Q86Z14 1-1044)
T1 sequence (looked up): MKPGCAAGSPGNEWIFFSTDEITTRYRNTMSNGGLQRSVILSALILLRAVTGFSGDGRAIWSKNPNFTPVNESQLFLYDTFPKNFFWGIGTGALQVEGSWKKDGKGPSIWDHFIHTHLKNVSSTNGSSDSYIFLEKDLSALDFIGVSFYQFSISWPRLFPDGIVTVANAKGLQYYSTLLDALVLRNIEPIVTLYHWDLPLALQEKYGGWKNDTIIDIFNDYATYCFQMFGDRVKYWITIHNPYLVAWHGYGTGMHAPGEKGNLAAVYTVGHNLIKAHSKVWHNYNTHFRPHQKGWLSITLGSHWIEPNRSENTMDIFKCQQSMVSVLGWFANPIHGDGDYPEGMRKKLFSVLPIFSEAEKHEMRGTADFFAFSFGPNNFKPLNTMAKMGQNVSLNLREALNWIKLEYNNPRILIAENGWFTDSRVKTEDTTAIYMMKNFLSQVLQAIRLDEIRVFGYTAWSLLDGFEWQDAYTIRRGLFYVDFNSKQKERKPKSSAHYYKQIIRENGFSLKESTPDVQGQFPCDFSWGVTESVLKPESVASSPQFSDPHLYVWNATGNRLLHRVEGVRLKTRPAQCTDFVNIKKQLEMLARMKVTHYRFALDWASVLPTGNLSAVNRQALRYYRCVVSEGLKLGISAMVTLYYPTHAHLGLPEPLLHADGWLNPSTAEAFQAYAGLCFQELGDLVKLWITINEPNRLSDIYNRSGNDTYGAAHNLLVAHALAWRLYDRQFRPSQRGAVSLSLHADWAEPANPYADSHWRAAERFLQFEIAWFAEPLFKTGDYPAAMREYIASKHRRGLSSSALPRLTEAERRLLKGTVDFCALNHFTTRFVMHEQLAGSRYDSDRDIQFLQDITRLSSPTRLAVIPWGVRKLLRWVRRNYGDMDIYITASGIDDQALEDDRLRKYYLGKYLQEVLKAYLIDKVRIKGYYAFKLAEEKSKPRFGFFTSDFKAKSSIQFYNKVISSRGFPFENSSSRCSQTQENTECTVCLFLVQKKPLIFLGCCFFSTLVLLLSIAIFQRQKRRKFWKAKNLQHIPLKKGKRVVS

mouse Klotho β (mouse) = mouse Klotho β (mouse) (UniProt Q99N32)
mouse Klotho β (mouse), sequence (Q99N32 whole entry): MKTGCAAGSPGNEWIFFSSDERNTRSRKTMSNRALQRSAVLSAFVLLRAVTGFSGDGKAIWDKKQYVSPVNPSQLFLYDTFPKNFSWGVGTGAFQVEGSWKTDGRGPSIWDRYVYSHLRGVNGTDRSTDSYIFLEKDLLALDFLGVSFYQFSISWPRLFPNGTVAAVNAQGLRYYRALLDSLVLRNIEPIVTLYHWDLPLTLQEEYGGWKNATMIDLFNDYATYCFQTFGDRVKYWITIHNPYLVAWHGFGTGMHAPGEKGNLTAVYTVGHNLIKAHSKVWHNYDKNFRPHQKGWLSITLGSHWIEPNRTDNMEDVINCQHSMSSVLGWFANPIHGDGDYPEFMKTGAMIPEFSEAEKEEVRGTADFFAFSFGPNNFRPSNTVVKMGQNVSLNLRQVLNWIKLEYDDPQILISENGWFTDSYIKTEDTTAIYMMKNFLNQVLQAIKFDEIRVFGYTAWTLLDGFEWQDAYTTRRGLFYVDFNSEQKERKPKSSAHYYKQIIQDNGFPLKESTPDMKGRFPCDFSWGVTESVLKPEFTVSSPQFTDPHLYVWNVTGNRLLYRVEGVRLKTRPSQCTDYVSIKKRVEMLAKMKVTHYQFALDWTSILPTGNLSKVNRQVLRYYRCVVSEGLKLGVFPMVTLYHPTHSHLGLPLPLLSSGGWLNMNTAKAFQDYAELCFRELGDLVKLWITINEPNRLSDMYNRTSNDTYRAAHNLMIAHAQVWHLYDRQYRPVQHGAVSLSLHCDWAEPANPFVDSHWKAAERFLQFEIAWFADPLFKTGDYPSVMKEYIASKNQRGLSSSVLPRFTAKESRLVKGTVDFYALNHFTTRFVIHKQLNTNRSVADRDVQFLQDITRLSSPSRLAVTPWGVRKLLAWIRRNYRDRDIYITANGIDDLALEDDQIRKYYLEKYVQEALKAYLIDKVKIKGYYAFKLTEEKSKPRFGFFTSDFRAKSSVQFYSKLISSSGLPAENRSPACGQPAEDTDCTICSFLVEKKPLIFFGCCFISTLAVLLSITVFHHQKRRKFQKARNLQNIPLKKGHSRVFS

human Klotho β [2] = target: T1, human Klotho β; remark: listed apart in the source
human Klotho β [3] = target: T1, human Klotho β; remark: listed apart in the source
human Klotho β [4] = target: T1, human Klotho β; remark: listed apart in the source
human Klotho β [5] = target: T1, human Klotho β; remark: listed apart in the source
human Klotho β [6] = target: T1, human Klotho β; remark: listed apart in the source
human Klotho β [7] = target: T1, human Klotho β; remark: listed apart in the source

% maximal activity, Erk1/2 phosphorylation in 293T HEK hKLB cells (FIG. 9B) (human Klotho β [1]): 27%
EC-50 of Erk1/2 phosphorylation in 293T HEK hKLB cells (FIG. 9B) (human Klotho β [1]): 148 nM
potency (agonism) in cells that overexpressed human KLB (FIG. 11A) (human Klotho β [1]): 65.8
potency (agonism) in cells that overexpressed mouse KLB (FIG. 11B) (mouse Klotho β (mouse)): 25.7
Molecule: FGF19 (from UniProt O95750 25-216) (ligand)

IC50 of antagonism of FGF21 (assay of Example 1) (human Klotho β [2]): 17.9 nM
Molecule: LETDSMDPFGLVTGLEAVRSPSFEA [FGF19 A26]

IC-50 of antagonism of FGF21 (pErk1/2, 293 HEK hKLB cells) (human Klotho β [3]): 0.67 µM
% max activity of antagonism of FGF21 (pErk1/2, 293 HEK hKLB cells) (human Klotho β [4]): 78.5%
IC-50 of antagonism of FGF21 (pErk1/2, 293 HEK hKLB cells) (human Klotho β [4]): 752 nM
Molecule: PPDVGSSDPLSMVGPSQGRSPAYAS [FGF21 25mer A22]

potency as agonist relative to native FGF21 (human Klotho β [5]): ~5 fold
B1: FGF21-19 K194A (ligand)
chain: HPIPDSSPLLQFGGQVRQRYLYTDDAQQTEAHLEIREDGTVGGAADQSPESLLQLKALKPGVIQILGVKTSRFLCQRPDGALYGSLHFDPEACSFRELLLEDGYNVYQSEAHGLPLHLPGNKSPHRDPAPRGPARFLPLPGLPPALPEPPGILAPQPLETDSMDPFGLVTGLEAVRSPSFEA

IC50 of antagonism of FGF21 (assay of Example 1) (human Klotho β [2]): 14.1 nM
Molecule: PPDVGSSDPL[dS]MVGPSQG[dR]SPSYAS-NH2 [FGF21 D11D19]

IC-50 of antagonism of FGF21 (pErk1/2, 293 HEK hKLB cells) (human Klotho β [3]): 4.16 µM
% max activity of antagonism of FGF21 (pErk1/2, 293 HEK hKLB cells) (human Klotho β [4]): 73.6%
IC-50 of antagonism of FGF21 (pErk1/2, 293 HEK hKLB cells) (human Klotho β [4]): 3.98 µM
Molecule: PPDVGSSDPLSMVGPSQGRSPSAAS [FGF21 25mer A23]

% maximal activity, Erk1/2 phosphorylation in 293T HEK hKLB cells (FIG. 9A) (human Klotho β [5]): 100%
B2: FGF21 (ligand)
chain: HPIPDSSPLLQFGGQVRQRYLYTDDAQQTEAHLEIREDGTVGGAADQSPESLLQLKALKPGVIQILGVKTSRFLCQRPDGALYGSLHFDPEACSFRELLLEDGYNVYQSEAHGLPLHLPGNKSPHRDPAPRGPARFLPLPGLPPALPEPPGILAPQPPDVGSSDPLSMVGPSQGRSPSYAS

% maximal activity, Erk1/2 phosphorylation in 293T HEK hKLB cells (FIG. 9A) (human Klotho β [5]): 100%
B3: FGF21 P171A (ligand)
chain: HPIPDSSPLLQFGGQVRQRYLYTDDAQQTEAHLEIREDGTVGGAADQSPESLLQLKALKPGVIQILGVKTSRFLCQRPDGALYGSLHFDPEACSFRELLLEDGYNVYQSEAHGLPLHLPGNKSPHRDPAPRGPARFLPLPGLPPALPEPPGILAPQPPDVGSSDPLSMVGASQGRSPSYAS

% maximal activity, Erk1/2 phosphorylation in 293T HEK hKLB cells (FIG. 9A) (human Klotho β [5]): 6%
B4: FGF21 D164A (ligand)
chain: HPIPDSSPLLQFGGQVRQRYLYTDDAQQTEAHLEIREDGTVGGAADQSPESLLQLKALKPGVIQILGVKTSRFLCQRPDGALYGSLHFDPEACSFRELLLEDGYNVYQSEAHGLPLHLPGNKSPHRDPAPRGPARFLPLPGLPPALPEPPGILAPQPPDVGSSAPLSMVGPSQGRSPSYAS

IC50 of antagonism of FGF21 (assay of Example 1) (human Klotho β [2]): 194 nM
Molecule: LETDSMDPF[dS]LVTGLEAVRSPSFES-NH2 [FGF19 S10]

IC50 of antagonism of FGF21 (assay of Example 1) (human Klotho β [2]): 182 nM
IC-50 of antagonism of FGF21 (pErk1/2, 293 HEK hKLB cells) (human Klotho β [6]): 0.16 µM
% Activity vs C25 (human Klotho β [7]): 100%
IC50 of antagonism of FGF21 (assay of Example 1) (human Klotho β [7]): 283 nM
% max activity of antagonism of FGF21 (pErk1/2, 293 HEK hKLB cells) (human Klotho β [4]): 100%
IC-50 of antagonism of FGF21 (pErk1/2, 293 HEK hKLB cells) (human Klotho β [4]): 168 nM
Molecule: PPDVGSSDPLSMVGPSQGRSPSYAS-NH2 [FGF21 157-181]

IC50 of antagonism of FGF21 (assay of Example 1) (human Klotho β [2]): 10.9 nM
Molecule: LETDSMDPF[dS]LVTGLEAVRSPSFEA-NH2 [FGF19 S10A26]

IC50 of antagonism of FGF21 (assay of Example 1) (human Klotho β [2]): 52.5 nM
% Activity vs C25 (human Klotho β [7]): 271%
IC50 of antagonism of FGF21 (assay of Example 1) (human Klotho β [7]): 152 nM
Molecule: PPDVGSSDPLSMVGPSQG[dR]SPSYAS-NH2 [FGF21 D19]

IC-50 of antagonism of FGF21 (pErk1/2, 293 HEK hKLB cells) (human Klotho β [3]): 1.5 µM
% max activity of antagonism of FGF21 (pErk1/2, 293 HEK hKLB cells) (human Klotho β [4]): 87.8%
IC-50 of antagonism of FGF21 (pErk1/2, 293 HEK hKLB cells) (human Klotho β [4]): 2.28 µM
Molecule: PPAVGSSDPLSMVGPSQGRSPSYAS [FGF21 25mer A3]

IC50 of antagonism of FGF21 (assay of Example 1) (human Klotho β [2]): 19.9 nM
% Activity vs C25 (human Klotho β [7]): 596%
IC50 of antagonism of FGF21 (assay of Example 1) (human Klotho β [7]): 57.3 nM
Molecule: PPDVGSSDPL[dS]MVGPSQGRSPSYAS-NH2 [FGF21 D11]
